Source: US8993253

Biological target: T1, Chromogenic polypeptide Val-Arg-[pABA]-Gly
T1 chain: VRXG

B1: papain (protein)
chain: IPEYVDWRQKGAVTPVKNQGSCGSCWAFSAVVTIEGIIKIRTGNLNEYSEQELLDCDRRSYGCNGGYPWSALQLVAQYGIHYRNTYPYEGVQRYCRSREKGPYAAKTDGVRQVQPYNEGALLYSIANQPVSVVLEAAGKDFQLYRGGIFVGPCGNKVDHAVAAVGYGPNYILIKNSWGTGWGENGYIRIKRGTGNSYGVCGLYTSSFYPVKN
With B1 the “colour change with DMAC after proteolysis (booklet assay)” value was “after ten minutes DMAC changed from yellow to red”.
